Source: paper PMC7374751

Target: LRP-1 (Homo sapiens) (UniProt Q07954)
Assay: not given
Conditions: cited from earlier work

MMP-1, sequence (P03956 100-469): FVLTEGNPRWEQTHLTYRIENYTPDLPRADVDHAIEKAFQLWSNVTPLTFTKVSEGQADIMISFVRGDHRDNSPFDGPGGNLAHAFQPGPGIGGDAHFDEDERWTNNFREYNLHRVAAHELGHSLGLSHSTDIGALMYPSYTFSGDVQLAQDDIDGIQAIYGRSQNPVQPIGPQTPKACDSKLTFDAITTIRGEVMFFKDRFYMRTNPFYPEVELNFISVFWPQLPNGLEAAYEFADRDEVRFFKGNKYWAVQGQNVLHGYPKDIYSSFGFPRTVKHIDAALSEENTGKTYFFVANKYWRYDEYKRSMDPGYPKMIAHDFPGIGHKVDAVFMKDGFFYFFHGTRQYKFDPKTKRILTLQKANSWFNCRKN
LRP-1 (Homo sapiens), sequence (Q07954 20-4544): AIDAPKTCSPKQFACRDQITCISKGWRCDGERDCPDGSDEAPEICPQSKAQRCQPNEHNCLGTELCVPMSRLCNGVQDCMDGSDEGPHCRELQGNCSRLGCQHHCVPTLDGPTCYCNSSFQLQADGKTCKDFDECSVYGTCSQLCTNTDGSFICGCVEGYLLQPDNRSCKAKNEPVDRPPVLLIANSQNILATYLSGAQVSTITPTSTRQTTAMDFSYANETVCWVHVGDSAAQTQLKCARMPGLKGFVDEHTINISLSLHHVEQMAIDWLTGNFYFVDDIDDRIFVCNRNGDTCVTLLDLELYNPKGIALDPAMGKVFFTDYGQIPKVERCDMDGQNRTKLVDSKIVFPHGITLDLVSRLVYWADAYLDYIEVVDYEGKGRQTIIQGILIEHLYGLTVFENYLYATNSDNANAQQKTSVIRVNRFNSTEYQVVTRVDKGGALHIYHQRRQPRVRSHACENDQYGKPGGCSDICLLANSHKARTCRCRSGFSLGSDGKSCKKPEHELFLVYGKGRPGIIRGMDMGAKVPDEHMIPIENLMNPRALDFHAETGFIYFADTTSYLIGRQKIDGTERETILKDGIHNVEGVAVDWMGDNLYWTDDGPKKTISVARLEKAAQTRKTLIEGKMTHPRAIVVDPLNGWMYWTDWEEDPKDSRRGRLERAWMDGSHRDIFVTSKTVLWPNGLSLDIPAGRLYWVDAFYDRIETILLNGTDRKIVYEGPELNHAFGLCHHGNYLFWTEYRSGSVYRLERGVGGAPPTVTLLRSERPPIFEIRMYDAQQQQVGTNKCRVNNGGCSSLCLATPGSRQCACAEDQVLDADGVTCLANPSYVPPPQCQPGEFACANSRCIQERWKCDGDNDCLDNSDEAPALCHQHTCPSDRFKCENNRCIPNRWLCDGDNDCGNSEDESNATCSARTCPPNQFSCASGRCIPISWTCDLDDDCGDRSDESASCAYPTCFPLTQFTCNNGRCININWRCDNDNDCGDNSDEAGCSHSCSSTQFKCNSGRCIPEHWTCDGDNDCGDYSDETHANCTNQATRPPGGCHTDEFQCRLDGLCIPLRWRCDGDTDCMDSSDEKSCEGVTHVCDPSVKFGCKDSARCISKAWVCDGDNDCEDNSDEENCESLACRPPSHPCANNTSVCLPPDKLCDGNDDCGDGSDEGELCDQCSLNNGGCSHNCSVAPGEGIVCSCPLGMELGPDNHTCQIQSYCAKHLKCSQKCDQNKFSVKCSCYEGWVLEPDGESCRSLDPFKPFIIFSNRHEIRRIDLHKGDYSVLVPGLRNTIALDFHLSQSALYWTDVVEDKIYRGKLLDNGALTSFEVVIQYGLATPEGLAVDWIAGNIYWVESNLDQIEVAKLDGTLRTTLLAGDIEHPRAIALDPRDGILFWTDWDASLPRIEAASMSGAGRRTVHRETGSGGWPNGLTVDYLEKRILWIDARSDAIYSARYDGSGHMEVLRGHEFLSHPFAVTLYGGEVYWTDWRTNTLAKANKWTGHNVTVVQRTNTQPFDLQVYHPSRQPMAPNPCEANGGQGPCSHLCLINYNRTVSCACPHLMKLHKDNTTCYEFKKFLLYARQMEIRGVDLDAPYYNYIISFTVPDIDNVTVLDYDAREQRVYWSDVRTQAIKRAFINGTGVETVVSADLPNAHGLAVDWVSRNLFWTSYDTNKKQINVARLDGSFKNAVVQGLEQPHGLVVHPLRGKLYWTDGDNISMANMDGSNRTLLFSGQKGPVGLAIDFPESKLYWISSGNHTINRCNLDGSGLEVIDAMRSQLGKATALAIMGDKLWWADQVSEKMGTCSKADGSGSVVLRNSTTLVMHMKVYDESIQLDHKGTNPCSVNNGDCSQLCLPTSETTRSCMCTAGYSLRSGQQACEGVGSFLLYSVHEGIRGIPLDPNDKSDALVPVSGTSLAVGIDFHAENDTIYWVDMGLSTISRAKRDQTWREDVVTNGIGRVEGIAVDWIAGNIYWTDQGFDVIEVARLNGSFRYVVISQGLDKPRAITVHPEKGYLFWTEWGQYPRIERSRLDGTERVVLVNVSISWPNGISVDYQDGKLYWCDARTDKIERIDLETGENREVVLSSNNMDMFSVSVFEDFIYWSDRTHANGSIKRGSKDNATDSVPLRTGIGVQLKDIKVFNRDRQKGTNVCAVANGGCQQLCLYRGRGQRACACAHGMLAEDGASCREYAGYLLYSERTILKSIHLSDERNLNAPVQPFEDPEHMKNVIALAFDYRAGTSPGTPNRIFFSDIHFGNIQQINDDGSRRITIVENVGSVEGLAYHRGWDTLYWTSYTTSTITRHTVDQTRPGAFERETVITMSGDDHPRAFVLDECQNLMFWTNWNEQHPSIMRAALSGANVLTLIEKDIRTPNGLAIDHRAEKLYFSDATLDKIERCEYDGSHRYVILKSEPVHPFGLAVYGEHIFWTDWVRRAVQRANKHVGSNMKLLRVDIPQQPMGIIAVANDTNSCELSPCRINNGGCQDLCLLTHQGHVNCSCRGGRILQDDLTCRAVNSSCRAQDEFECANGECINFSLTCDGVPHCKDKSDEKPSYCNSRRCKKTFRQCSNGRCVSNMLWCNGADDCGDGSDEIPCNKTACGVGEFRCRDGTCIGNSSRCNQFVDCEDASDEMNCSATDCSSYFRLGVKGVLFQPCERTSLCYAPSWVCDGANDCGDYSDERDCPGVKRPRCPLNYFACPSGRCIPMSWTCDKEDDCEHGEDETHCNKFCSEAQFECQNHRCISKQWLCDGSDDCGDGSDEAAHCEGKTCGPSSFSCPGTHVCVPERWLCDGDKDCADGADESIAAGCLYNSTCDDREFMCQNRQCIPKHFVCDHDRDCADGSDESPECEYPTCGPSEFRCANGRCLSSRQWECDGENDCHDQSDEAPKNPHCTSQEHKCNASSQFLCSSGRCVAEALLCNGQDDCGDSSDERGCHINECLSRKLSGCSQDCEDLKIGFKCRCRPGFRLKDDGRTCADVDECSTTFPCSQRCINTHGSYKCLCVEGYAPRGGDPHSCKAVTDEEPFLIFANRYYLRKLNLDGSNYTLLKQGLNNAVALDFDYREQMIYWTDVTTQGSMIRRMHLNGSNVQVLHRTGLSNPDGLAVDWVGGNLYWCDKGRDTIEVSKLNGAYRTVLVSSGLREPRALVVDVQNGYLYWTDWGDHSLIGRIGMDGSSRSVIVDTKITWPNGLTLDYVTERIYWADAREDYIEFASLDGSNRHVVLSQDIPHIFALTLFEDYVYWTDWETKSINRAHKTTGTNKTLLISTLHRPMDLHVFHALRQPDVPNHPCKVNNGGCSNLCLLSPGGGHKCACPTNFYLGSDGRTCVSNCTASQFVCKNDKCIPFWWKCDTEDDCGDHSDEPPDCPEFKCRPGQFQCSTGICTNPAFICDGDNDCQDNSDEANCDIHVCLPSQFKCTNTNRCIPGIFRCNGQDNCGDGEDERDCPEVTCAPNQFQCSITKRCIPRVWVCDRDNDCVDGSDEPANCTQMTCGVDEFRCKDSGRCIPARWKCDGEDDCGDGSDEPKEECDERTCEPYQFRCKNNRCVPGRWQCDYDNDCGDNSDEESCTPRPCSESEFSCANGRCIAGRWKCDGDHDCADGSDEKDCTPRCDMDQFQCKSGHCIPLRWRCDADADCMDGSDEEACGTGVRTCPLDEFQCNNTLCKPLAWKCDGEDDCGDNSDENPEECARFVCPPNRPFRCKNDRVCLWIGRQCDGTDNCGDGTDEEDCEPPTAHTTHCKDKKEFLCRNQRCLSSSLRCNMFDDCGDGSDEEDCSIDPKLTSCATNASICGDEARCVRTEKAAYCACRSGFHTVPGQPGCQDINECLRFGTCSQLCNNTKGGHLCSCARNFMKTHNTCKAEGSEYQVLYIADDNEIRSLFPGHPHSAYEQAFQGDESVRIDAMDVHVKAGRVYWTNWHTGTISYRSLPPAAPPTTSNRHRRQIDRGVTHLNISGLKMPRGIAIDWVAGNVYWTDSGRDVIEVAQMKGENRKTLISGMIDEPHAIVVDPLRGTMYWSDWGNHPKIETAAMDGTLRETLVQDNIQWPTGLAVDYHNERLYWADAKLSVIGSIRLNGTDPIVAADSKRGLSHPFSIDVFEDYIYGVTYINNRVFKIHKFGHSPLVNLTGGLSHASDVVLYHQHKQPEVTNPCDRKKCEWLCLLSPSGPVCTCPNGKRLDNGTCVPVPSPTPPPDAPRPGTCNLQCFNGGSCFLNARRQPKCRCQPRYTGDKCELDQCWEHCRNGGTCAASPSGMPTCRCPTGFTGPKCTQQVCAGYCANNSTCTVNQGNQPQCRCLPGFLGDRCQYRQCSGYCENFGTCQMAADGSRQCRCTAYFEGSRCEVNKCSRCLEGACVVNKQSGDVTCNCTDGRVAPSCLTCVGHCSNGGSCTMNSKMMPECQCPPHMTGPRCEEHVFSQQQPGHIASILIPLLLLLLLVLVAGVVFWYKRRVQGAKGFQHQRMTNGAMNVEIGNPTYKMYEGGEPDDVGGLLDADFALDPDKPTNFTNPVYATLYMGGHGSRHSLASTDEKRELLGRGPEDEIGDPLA

| Substance | Kd [nM] |
| --- | --- |
| RAP (from UniProt P30533) | 1.4 |

Target: TIMP-1 (Homo sapiens) (UniProt P01033)
Assay: not given
Conditions: cited from earlier work

| Substance | Ki [nM] |
| --- | --- |
| MMP-1 (from UniProt P03956) | 0.38 |

Target: low-density lipoprotein receptor-related protein 1 (LRP-1) (UniProt Q07954)
Assay: SPR; BIAcore T200; LRP-1 immobilised on a CM5 chip by amine coupling (3000 RU); 25 °C; 150 mM NaCl, 10 mM CaCl2, 50 mM Tris-HCl, 0.01% Tween-20, pH 7.5; 30 μl/min; ligands or pre-formed complexes injected; one-site binding model; triplicate
Conditions: not given

low-density lipoprotein receptor-related protein 1 (LRP-1), sequence (Q07954 20-4544): as above

| Substance | Kd [nM] | koff [s⁻¹] | kon [M⁻¹ s⁻¹] |
| --- | --- | --- | --- |
| MMP-1 (E200A), catalytically inactive form of MMP-1 (enzyme) | 34.6 | 0.00468 | 136000 |
| MMP-1/TIMP-1 complex (from UniProt P01033 24-207) | 16.5 | 0.0064 | 390000 |
| MMP-1/TIMP-2 complex (from UniProt P16035 27-220) | 7.8 | 0.00327 | 419000 |
| MMP-13 (E204A), catalytically inactive mutant (enzyme) | 25.6 | 0.00598 | 234000 |
| MMP-13/TIMP-1 complex (from UniProt P45452 20-471; P01033 24-207) | 10.6 | 0.00345 | 326000 |

Other lines, results leading:

| Kd [nM] | koff [s⁻¹] | kon [M⁻¹ s⁻¹] | Substance |
| --- | --- | --- | --- |
| 4.3 | 0.00246 | 573000 | MMP-1/N-TIMP-3 complex |
| 4.96 | 0.00228 | 461000 | MMP-1/TIMP-3 complex (from UniProt P35625 24-211) |
| 5.59 | 0.00241 | 431000 | MMP-13/TIMP-2 complex (from UniProt P45452 20-471; P16035 27-220) |
| 3.35 | 0.00295 | 882000 | MMP-13/TIMP-3 complex (from UniProt P45452 20-471; P35625 24-211) |

Target: TIMP-3 (Homo sapiens) (UniProt P35625)
Assay: not given
Conditions: cited from earlier work

| Substance | Ki [nM] |
| --- | --- |
| MMP-1 (from UniProt P03956) | 1.1 |

Target: TIMP-2 (Homo sapiens) (UniProt P16035)
Assay: not given
Conditions: cited from earlier work

| Substance | Ki [nM] |
| --- | --- |
| MMP-1 (from UniProt P03956) | 1.03 |

Target: low-density lipoprotein receptor-related protein 1 (LRP-1) (UniProt Q07954)
Assay: not given
Conditions: not given

| decrease in clearance of 10 nM intact [35S]MMP-1 from the conditioned medium of HTB94 cells, 0-24 h [%] | Substance |
| --- | --- |
| 20 | full length MMP-1 (enzyme) |
